According to paper PMC11721465 (Molecular Neurodegeneration, 2025):

T1: Human IL-34 (19–241) (human, UniProt Q6ZMJ4 19-241)
T1 construct: IL-34, human, residues 19-241; source: Expi293F cells, secreted, purified from the media using NiNTA chromatography
T1 sequence (looked up): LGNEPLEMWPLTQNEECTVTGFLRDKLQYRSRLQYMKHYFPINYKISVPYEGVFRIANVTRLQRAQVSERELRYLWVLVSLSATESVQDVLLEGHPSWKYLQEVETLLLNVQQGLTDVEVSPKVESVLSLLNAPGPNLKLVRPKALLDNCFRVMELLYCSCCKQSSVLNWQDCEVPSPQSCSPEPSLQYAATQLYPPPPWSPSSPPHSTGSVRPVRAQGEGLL


Experiments:
Conditions in all cases: both partners purified
[1] = target: T2, oligomeric amyloid beta 42 (UniProt P05067 672-713); assay: not stated; KD of oAβ42 and TREM2 referred to Supplemental Fig. 9; method not given
T2 construct: amyloid beta 42 (Aβ42), cut product of the amyloid precursor protein; oligomers of unstated size; also called oAβ42; Aβ42 oligomers; source: bought: Anaspec; oligomers made from HFIP/DMSO-treated peptide in PBS, 37 °C, 3 h

Human IL-34 (19–241) = target: T1, Human IL-34 (19–241); assay: BLI; biotinylated TREM2 WT or variant immobilised on SA biosensors; IL-34 62.5–1000 nM; PBS with 0.1% BSA and 0.005% Tween-20; 1:1 kinetic fits
[2] = target: T3, TDP-43, full length, soluble oligomers (human, UniProt Q13148 1-414); assay: BLI; biotinylated TREM2 WT or variant immobilised on SA biosensors; TDP-43 oligomers 0.625–10 µM; PBS with 0.1% BSA and 0.005% Tween-20; biphasic curves, only qualitatively evaluated
T3 construct: TDP-43, human, full length; oligomers of unstated size; also called oligomeric TDP-43; TDP-43 oligomers; source: E coli, purified from insoluble inclusion bodies, solubilized in 6 M guanidine, oligomers made by 1:100 dilution
T3 sequence (Q13148 whole entry): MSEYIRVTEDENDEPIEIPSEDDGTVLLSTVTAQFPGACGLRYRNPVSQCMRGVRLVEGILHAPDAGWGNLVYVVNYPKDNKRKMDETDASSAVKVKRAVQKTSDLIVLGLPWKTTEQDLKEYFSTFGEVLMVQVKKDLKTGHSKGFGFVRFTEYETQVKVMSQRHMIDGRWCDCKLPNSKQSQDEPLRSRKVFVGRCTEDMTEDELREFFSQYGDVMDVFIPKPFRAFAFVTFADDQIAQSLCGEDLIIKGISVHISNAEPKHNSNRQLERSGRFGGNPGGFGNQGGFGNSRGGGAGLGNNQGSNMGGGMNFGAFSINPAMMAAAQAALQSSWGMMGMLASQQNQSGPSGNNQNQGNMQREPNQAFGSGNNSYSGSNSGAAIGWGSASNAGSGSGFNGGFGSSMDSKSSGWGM

apolipoprotein E3 = target: T4, apolipoprotein E3 (UniProt P02649 19-317); assay: BLI; biotinylated TREM2 WT or variant immobilised on streptavidin (SA) biosensors; apoE in solution (apoE4 0.012–50 µM); PBS with 0.1% BSA and 0.005% Tween-20; double-reference subtraction; steady-state analysis
T4 construct: also called apoE3
T4 sequence (P02649 19-317): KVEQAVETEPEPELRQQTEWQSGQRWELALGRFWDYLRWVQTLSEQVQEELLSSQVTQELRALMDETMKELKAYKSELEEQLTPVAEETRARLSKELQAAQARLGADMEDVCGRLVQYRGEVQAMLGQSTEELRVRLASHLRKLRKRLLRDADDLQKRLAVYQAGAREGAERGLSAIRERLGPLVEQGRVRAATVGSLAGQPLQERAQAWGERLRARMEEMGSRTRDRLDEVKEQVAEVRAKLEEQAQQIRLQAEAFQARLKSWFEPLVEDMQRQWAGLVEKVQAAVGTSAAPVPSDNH

Kd [1] [nM]	Kd (Human IL-34 (19–241)) [nM]	binding result [2]	Kd (apolipoprotein E3) [nM]	Binder
42	16.5 ± 0.2	binds	–	TREM2 (19–134) WT, biotinylated (domain or fragment, human, UniProt Q9NZC2 19-134, looked up, biotin on the C-terminal BirA biotinylation sequence (enzymatic, BirA), glycosylated (mammalian cells); also called TREM2 WT; source: Expi293F cells, purified, enzymatically biotinylated using BirA) HNTTVFQGVAGQSLQVSCPYDSMKHWGRRKAWCRQLGEKGPCQRVVSTHNLWLLSFLRRWNGSTAITDDTLGGTLTITLRNLQPHDAGLYQCQSLHGSEADTLRKVLVEVLADPLD
–	17.2 ± 0.4	–	–	TREM2 (19–134) W78D, biotinylated (domain or fragment, human, UniProt Q9NZC2 19-134, looked up, biotin on the C-terminal BirA biotinylation sequence (enzymatic, BirA), source: Expi293F cells, purified, enzymatically biotinylated using BirA) HNTTVFQGVAGQSLQVSCPYDSMKHWGRRKAWCRQLGEKGPCQRVVSTHNLWLLSFLRRDNGSTAITDDTLGGTLTITLRNLQPHDAGLYQCQSLHGSEADTLRKVLVEVLADPLD
–	21.5 ± 0.6	–	–	TREM2 (19–134) T85D, biotinylated (domain or fragment, human, UniProt Q9NZC2 19-134, looked up, biotin on the C-terminal BirA biotinylation sequence (enzymatic, BirA), source: Expi293F cells, purified, enzymatically biotinylated using BirA) HNTTVFQGVAGQSLQVSCPYDSMKHWGRRKAWCRQLGEKGPCQRVVSTHNLWLLSFLRRWNGSTAIDDDTLGGTLTITLRNLQPHDAGLYQCQSLHGSEADTLRKVLVEVLADPLD
–	23.7 ± 0.4	–	–	TREM2 (19–134) T96K, biotinylated (domain or fragment, human, UniProt Q9NZC2 19-134, looked up, biotin on the C-terminal BirA biotinylation sequence (enzymatic, BirA), AD risk variant that occurs in nature; source: Expi293F cells, purified, enzymatically biotinylated using BirA) HNTTVFQGVAGQSLQVSCPYDSMKHWGRRKAWCRQLGEKGPCQRVVSTHNLWLLSFLRRWNGSTAITDDTLGGTLTIKLRNLQPHDAGLYQCQSLHGSEADTLRKVLVEVLADPLD
–	29.4 ± 0.4	–	–	TREM2 (19–134) R122E, biotinylated (domain or fragment, human, UniProt Q9NZC2 19-134, looked up, biotin on the C-terminal BirA biotinylation sequence (enzymatic, BirA), source: Expi293F cells, purified, enzymatically biotinylated using BirA) HNTTVFQGVAGQSLQVSCPYDSMKHWGRRKAWCRQLGEKGPCQRVVSTHNLWLLSFLRRWNGSTAITDDTLGGTLTITLRNLQPHDAGLYQCQSLHGSEADTLEKVLVEVLADPLD
–	25.8 ± 0.3	–	–	TREM2 (19–134) W44D/L69D/L71D, biotinylated (domain or fragment, human, UniProt Q9NZC2 19-134, looked up, biotin on the C-terminal BirA biotinylation sequence (enzymatic, BirA), source: Expi293F cells, purified, enzymatically biotinylated using BirA) HNTTVFQGVAGQSLQVSCPYDSMKHDGRRKAWCRQLGEKGPCQRVVSTHNDWDLSFLRRWNGSTAITDDTLGGTLTITLRNLQPHDAGLYQCQSLHGSEADTLRKVLVEVLADPLD

More lines, now with the values behind:

Binder	Kd [1] [nM]	Kd (Human IL-34 (19–241)) [nM]	binding result [2]	Kd (apolipoprotein E3) [nM]
TREM2 (19–134) D87N, biotinylated (domain or fragment, human, UniProt Q9NZC2 19-134, looked up, biotin on the C-terminal BirA biotinylation sequence (enzymatic, BirA), AD risk variant that occurs in nature; source: Expi293F cells, purified, enzymatically biotinylated using BirA) HNTTVFQGVAGQSLQVSCPYDSMKHWGRRKAWCRQLGEKGPCQRVVSTHNLWLLSFLRRWNGSTAITDNTLGGTLTITLRNLQPHDAGLYQCQSLHGSEADTLRKVLVEVLADPLD	–	28.4 ± 0.5	binds	79
TREM2 (19–134) R122D/K123D, biotinylated (domain or fragment, human, UniProt Q9NZC2 19-134, looked up, biotin on the C-terminal BirA biotinylation sequence (enzymatic, BirA), source: Expi293F cells, purified, enzymatically biotinylated using BirA) HNTTVFQGVAGQSLQVSCPYDSMKHWGRRKAWCRQLGEKGPCQRVVSTHNLWLLSFLRRWNGSTAITDDTLGGTLTITLRNLQPHDAGLYQCQSLHGSEADTLDDVLVEVLADPLD	–	18.5 ± 0.3	–	–
TREM2 (19–134) R62H, biotinylated (domain or fragment, human, UniProt Q9NZC2 19-134, looked up, biotin on the C-terminal BirA biotinylation sequence (enzymatic, BirA), AD risk variant that occurs in nature; source: Expi293F cells, purified, enzymatically biotinylated using BirA) HNTTVFQGVAGQSLQVSCPYDSMKHWGRRKAWCRQLGEKGPCQHVVSTHNLWLLSFLRRWNGSTAITDDTLGGTLTITLRNLQPHDAGLYQCQSLHGSEADTLRKVLVEVLADPLD	–	75	binds	–
TREM2 (19–134) L75D, biotinylated (domain or fragment, human, UniProt Q9NZC2 19-134, looked up, biotin on the C-terminal BirA biotinylation sequence (enzymatic, BirA), source: Expi293F cells, purified, enzymatically biotinylated using BirA) HNTTVFQGVAGQSLQVSCPYDSMKHWGRRKAWCRQLGEKGPCQRVVSTHNLWLLSFDRRWNGSTAITDDTLGGTLTITLRNLQPHDAGLYQCQSLHGSEADTLRKVLVEVLADPLD	–	36.6 ± 0.9	–	–
TREM2 (19–134) R77D, biotinylated (domain or fragment, human, UniProt Q9NZC2 19-134, looked up, biotin on the C-terminal BirA biotinylation sequence (enzymatic, BirA), source: Expi293F cells, purified, enzymatically biotinylated using BirA) HNTTVFQGVAGQSLQVSCPYDSMKHWGRRKAWCRQLGEKGPCQRVVSTHNLWLLSFLRDWNGSTAITDDTLGGTLTITLRNLQPHDAGLYQCQSLHGSEADTLRKVLVEVLADPLD	–	114 ± 4	–	–
TREM2 (19–134) L69D/L71D, biotinylated (domain or fragment, human, UniProt Q9NZC2 19-134, looked up, biotin on the C-terminal BirA biotinylation sequence (enzymatic, BirA), source: Expi293F cells, purified, enzymatically biotinylated using BirA) HNTTVFQGVAGQSLQVSCPYDSMKHWGRRKAWCRQLGEKGPCQRVVSTHNDWDLSFLRRWNGSTAITDDTLGGTLTITLRNLQPHDAGLYQCQSLHGSEADTLRKVLVEVLADPLD	–	20.2 ± 0.3	–	–
TREM2 (19–134) R47H, biotinylated (domain or fragment, human, UniProt Q9NZC2 19-134, looked up, biotin on the C-terminal BirA biotinylation sequence (enzymatic, BirA), AD risk variant that occurs in nature; source: Expi293F cells, purified, enzymatically biotinylated using BirA) HNTTVFQGVAGQSLQVSCPYDSMKHWGRHKAWCRQLGEKGPCQRVVSTHNLWLLSFLRRWNGSTAITDDTLGGTLTITLRNLQPHDAGLYQCQSLHGSEADTLRKVLVEVLADPLD	–	79.8 ± 2.4	binds	–
TREM2 (19–134) R46D, biotinylated (domain or fragment, human, UniProt Q9NZC2 19-134, looked up, biotin on the C-terminal BirA biotinylation sequence (enzymatic, BirA), source: Expi293F cells, purified, enzymatically biotinylated using BirA) HNTTVFQGVAGQSLQVSCPYDSMKHWGDRKAWCRQLGEKGPCQRVVSTHNLWLLSFLRRWNGSTAITDDTLGGTLTITLRNLQPHDAGLYQCQSLHGSEADTLRKVLVEVLADPLD	–	18 ± 0.3	–	–
